The values that follow come from the DeepSol protein solubility set.

The series in a line: soluble on expression in E. coli; label from the status in PepcDB or PDB records.
For “GPGSMERLLPSMQQRFAELAHTGVGESSLTVEALFQRYQRVLKVGEGTFGEVFVLYDTVAHTYITMKRMHTLLSLRRRSLGIHRCTFREVELLAALQHPNIVQVLDYHILSDGSLVMLMPVIAHDLTSLLRRWPSTPQSSDHGTASTAASTRPRMPLHVVKCIFRQIIAGVAYLHKHKVVHRDLKPSNVMVDHTGVVKLIDFGWSRFCAAAGAMTGPPCVTAFRPPEVLMGAHNHYTFSLDIWCCGCILFEMLTGGTPFAKSRNEAECLANIVDWLGSPPSSSEVYYRRAARCPFPLAPGRPDTFAQRCSNYGIKSAEAMFLRRMLCLEPGERATAEALLRDPWFTTAPTMCVPRAVPLPAHNMFRLVEVKRKELEH”, the “soluble on expression in E. coli” value was “not soluble”. The value for “GPGSMERNPAHPLDATAKLPVRQKEVTFDSLCVNADDRFVEGLSGKSEERRGFRPNTKLYAANAARTRGRTGGASDLGFTESLPTLNEVIGEEKISHLGRLRARPPRAAEGSTDVIPVARVKAKSSLTRPVHATPTSIPSTRSLWVEGSSVLNQDVGHASAALTHLSDCVAQERRLKVEWEAARLAKIRALRAVVKVFMQSFIDRGSFARSTSVGGKVMSDTLAVARCSVITNTLVGTVQNFMRAFRSRRLCAARGPVSGLQLFPNIAGQESDRFTLSLYSSAPGGAESSVNESYVSPNHSVSDYLEEEEVSRIKQLYFDYFDCEAVSISSAVASGSDMSIFAYSAASSISRPSSPVSRGGDHSSFSHCASTTM” was “not soluble”; that for “GPGSMETAIQQDPVYVRLGVFRRLHGSNEVEWLMLRRINREMRPPDIPPISLKLPGKWTLLYERYKEAAIRTLWEETGITVDPTSVFPTAQLYQTSPKYYWRVPVRYFVAEVPHDVRVEGPQVVPTQYMRNWDVRLLRQSPDPIDRAWAQLADPITGCAWMKAPMIDELQKPLRGEKYMATRYTPPPYSNLQEVVGLGDGDQDTQNKETEAADPNA” was “not soluble”. Consider “GPGSMFFLTRFKLGMADVTAAIGSGKCGEVLRKLNEKKAVREREENIDYRRALCFLANSQDVFHARQALLEELRHFPNNTAARTLLLEVNETVRPLLMPPKELLKSEPLFGLLCDALLDHTMLTWTRLYSLYRLSKEVCSKEGEGGALMECGVSGGGSVVLLAVVAAHYSKKPRKIYALDTFSGMPEPTTHDNLEEDGNLKPAESTSWGSGTCSATVENVRQLAKNFDVEEGLVVIPGLFHETMPKTLREISDEGISMLHVDADWYESTRCALELAWPMVKQGGMVQVDDYHYWLGCRKAVDEFAQREESEHRPLPILQNVDGNAVYFTKP”, for which the “soluble on expression in E. coli” value is listed as “not soluble”. With “GPGSMLYDEEECIKVIVVGDGNVGKTCMLRRFVRGDFVEQYRKTIGAEFMEKDVFLRSSKTMVKLMLWDTAGQEVFNALTQAYYRGAGAAILTFSTVDRDSLMSIAGWKQRVESVCGCITMVLCQTKFDLSHEAVITHAEAEGLASQLEVPLFRVSAKDDFNVRQLFEFTAQQCVENSAQDEAPVDDMP” the entry was “not soluble”; with “GPGSMMELPMEMNVDGVPMVLSKVSYSPMLDFGGTFSYRRYCFVGELQPEGYVNWFFAPLEGYKDKRLRVHESAVKEGALNHLVFMRLGELSFRQYKLKHIPSPTEQPHSPVTPQGDSTKQLMGHAHPHFNYIFEAMRQDQASSPSPRSSSIGSDCTYHSSKESCESLQMSSSLVDLPGKRLSNASLRSGVRPPLEARRGAVCDDEGFLPPVRSLKKSSERSQEL”, “not soluble”. With “GPGSMMEYADAYVGGGGRLRPGAQGSTTATGASRPYLEQRTVAPVTSALGQELDRLVGGTLAAQEYRDRLEALTRSVQASDEKVLNLTRLVKLSQSIQEEKEADLRRQNDELRARLKRQEQLTAQLQRQLEGMQGAVDAQALHHVVERLEGQMSACRGKQEEQWVAVQQRIGELEDRLQRASTCTAERCEERLMQLDERLQQVTQSTADATNQWAKRNFVRFKEQVDSLRADLDDVRGGQKELKSTVQSASCRAEIEYKKVLLLLQQKTKEADALTSLVEKELQHLQKVAHRHQILASKDITPAFEFDEKPYDALKFAAGEGKRRGAEAAAERRRR” the entry was “not soluble”. The value for “GPGSMMRRVGDYEILDVVGEGAYSKVKRVRHIPTGCMFVAKIVPKTNQQVENDVRLEISILRRLKHKNIVQLIEILESTNNYYIILEPVMGGDLCDIIVGMDRPLPEQDVAALLIQLVAGVRACHRNGVAHRDLKPENLLLGTDGVLKISDFGLSRLHRESNFQASTNEYAHTLTGTLAYLAPEVFGGSYDAFRADIWSMGCIAYVLLTQNFPFGSTTDPHALEVRIRNGEVSVMPSSVSAEAKNLCKWLLSPRPEDRPTLDAVAQHDFFKRYLPAEYLRMTANRKSPIVHGANMNEFSSQVQEEAPSCSPSTATAKRKHQYVRSGSAARTSPSSSAVAGAATSSNRSSESGRDREDLVSHGTQGESDPGGYCGDV” was “soluble”; that for “GPGSMQERESLLKEYKGLLANLEEAFDLKRSNEADQEVDDLIDETKAELRTVVASLNASEVIEVTKDVTKVVDADGNTVILYSKVAPYEVHFDNAMWYSCVITDVVQPETALERVRYKAWILGYNVEEETYSEQLRVWQPQAAEGETTLRSGVACHAVNPRSGRFESAKVVRLTLSDTVILTFSDVVEMTKEVGETDGAGAAGELATGKRDPSGGDTSAVTEEVPLSHVRVGRFYQQLRKRSTLTSEERARRRAQNVERKRVRRETKRQQDANVASQNANDWQRLVEDMGLATGCAKKRR” was “soluble”; that for “GPGSMRNLLGESAVSSLVIEEPTKVAMTTSPTAVLNSSMSTDTDSTAVSPARVKGVSPQTKANGNSNGDGSTAIRGQSNDKQLEAPTEVQYRAVEVMVVDRGTQTTTTVGCQTDPEPSQSPVGGAMPFHRGFCPRCTCCCRGVVRDYPWRNAREEEDRSSRFQEELETIQKSIDMMIARYNLPPPPMPRY” was “not soluble”. On to “GPGSMRSLVVHLLSYTQRFASAKPTILYVPQKTLIAEQVMEDEFKLSHTFPSLRIASLDLDYVFLEEKFFTMTLPLSFKSVFADGDLSNLTWIARLLLKLQTARFGAIRHIRGKGSNAAKVIQLLQRMQNNISHDFITDIPSEVETLIIIDRSVDFVTPLMTQLTYEGLIDELYDIENCEVQFPFSLGESSGVGASEKVVLNSTDRMFAEIRDRSFTGVGSVLYQKSIWVKQNYDKRKEVQQLKELKEFMKGLPEMQEMHRLIGIHTNVATEISKTTQRTDFRKRIMFEHNIIQQTNEGDVLRYIEDLVFRKEKFEVVLRLLALLSLVNSGLREKDLLGLKENMMLVYGIPHVITAFFMLERCGLLCAQSGKGSSYSTIRKQLRTWNSSVPEGQPNDIAYAYGGYAPPFVRMVDTLLRNPQAWDAEDDAPSLLPGEKKELMNDVEIAGTTKTAIVFVIGGITASEVSALRFVEERLSSGGRPHRIFIGTTDIISGNRMIRSLLPFEPAR”, for which the “soluble on expression in E. coli” value was “not soluble”.

In the case of “GPGSMRVNDSITVQQLADEYCITSVVECDATGSVQPRAVALDSPLDVLHGGKYYIARRDVKHFAREPRVTFRGKVTVREFNATHGVIGREGETNANRGQAVAADPVGVAPSRKRPEREEDLFDSGTRTEIYAKEYEFVPFVGDLYNDGRNGMIHLKDVKKLCESVDLDEVEFRARHVQAEKILTHAKQLLLSYADGNGGRTSPEY”, the “soluble on expression in E. coli” value is listed as “not soluble”. The value for “GPGSMSFPKEWTDTWNLFDDRRSGSVTHSDVKHIIRSLGRRYTEAEFNELLHDIPDPIPYQSFVEIMQKPYNGPTEDDLRTALRAFDGNDSGQLKLSELITLLTSLGEKMPEAEVKQLLSEVHTNEDGRVNIDDLARFLCTPLPTTQPDIAELQKQLAGIS” was “soluble”. Regarding “GPGSMSLKKKTFKQRIRKNDMKQRHQIGFGLRKRMGAARRIRNRYDSVDDGTRPMEMIVSEIAEGTAVPSQEAVLDPRSLTDLLLRPAESPVSNNSASASANVATTSCAVASKSNGCSSALWKRGSSKSSALLTSVPLASEKVLPSLPLAPDDPLALPDTRVFEEEERQQRLAREAAARQNENKNLYRHSGQPYLFWERVGLHPALLQALRDLHFTHPTPVQEEVLPNVLASGDEGLARQRSSEADKKSKKHKRAGGAADSAGHDVVVSAETGSGKTLVFALPILQDLLTTLDTERVSAVTPTSSAEAVHEKATGQASSDAAWRERS”, the “soluble on expression in E. coli” value is listed as “soluble”. The value for “GPGSMSTSQPIVKPFIYLRIPSEDARPVEELHFNGHNEAELRHTLTRCFRQSLLSDDQKKDMARHLADKASESAKKHAVKGNGDASAAGSGAEPPVDVEQQQAAMIDQYLEQASYEIIPVTMPMRSTQYIGTSLYIDDSGAFKDLPLNYRASKLAQREIRGDAFLLSNHDDPALDEWGRVDCPLQRYEELYANPPQIAYDPSNQAQMTQAAMLRETETKKISLEDYEKAQKAKEDGNRLFAANDLPAAVQAYSMTVDLTDGRRDLLPNEEAATQLRLSALLNRCLCFTRLKKFPEAVRDAQAAAYLDPKSMKAYYRLTYALCGAQEYEAAAQACEKYAQLGGAEEDVTAMRTAVAAGETEVKKAQKQIFSKMFRS” was “soluble”. With “GPGSMSVSATPYKRQDAITAKTVLLGESAVGKSSIALRFARNEFSSNQETTIGAAFLSRSVTVSATSQSGGGGAVANAASGTIKFEIWDTAGQERYRSLAPIYYRGACGALVVYDITSAESLKKAQMWMRELRANADPTLLIILVGNKKDMESLRQVSYEDGAAVAQEEDVNGFFEVSAKENVNVEEVFAKLARLLLEHGLGANSGPGSLSGPRGAQRLEPPTRQQKKEGGCAC” the entry was “not soluble”; with “GPGSMTDALAKPIRVCVLACSYEGSDSELRAYEGDLIQTPQNYFCSEDAQCTFHLELIKKATAYRQIRQLVMSGKFDVFYNQCDGAKDEDRAGVEVVEALEEFKVPYTGAISKYYEMSKPDMKLVAYYYNIATANYIVLAPGDDIESLCGDLQFPCIIKHISGYSSVGMDKSCKVYDMAHLVDRAARFMAEYQFALVEEFVNGDEATILACSDSTQPEGVRVFPPVQVAFPEGEDFKHFQLKWASYEGMKWTQVPQEDPAMQNMIDIARSAFKRMMGGVGYGRIDVRIDRQKNHKVVFLEINPNCGIMYPYGQEGSADWILRLNRGFQQREFAMLQIREAITRCQRERLLYVRRFDPVRGYHLRAAEDISVGTIIFQDECRPVRLCTKPYALQHFSKADYVDFQHNAWPVGRDGHYYALWDHDPAQWRAFNHSCEPNMSFAPMRSLDVVALRNIPKGEELTMDYRQFMDSTMPGFQCNCGTEKCEGFVSPGSLVDSPTAKIASQPTVALRHNIAVRLNPI”, “soluble”. On to “GPGSMTEKPAKEPPLPRDLKAQFDVLAGTRWDGVGDDADAAEQLSQLRQEWKALGNACYGKGYFLAAIRCYSRLLEVPGGDTAQIRSNRSAAYLQSPMLVGPSLALKDAEKAVELDPQWFKAHLRVGDAHRKRGHFAEAEAAYREALARQPECATALAGLRALQVESAGLPAAAATFPRGHAERTPYHNAPPSPRSLSSRTTAHAVAVAQAKEEELQLTQEQLVHKWKADISTREGRTGCRPRQASLSQADRQHGAAIKQALLARFRDKLESNGEFSAILRNRCEEAMLRGEGINYRDADKLRNTYSHATNGIGLGISSDAYKEYTGRVDHRTW”, for which the “soluble on expression in E. coli” value is “soluble”. The value for “GPGSMVLIECKRLPKDEYSKDYDVFLVSMPGSTNIGEATDALQKMRNTRVRIKWMCAAAKQLAKDFCSDEQKHHLLGAVEDAERYMAIERAENRQLCSQEDLDAHIAAFKGSAMILFPAECSGTDAVKRLALVLDDENTTDLERSKAHRLLSIIDDGAATEDILQGPAVMWWSGKPLDRNADFTKYVGKNEKTKITMKLAAKDAPPPPREPAVDAKTQSEMMAFYFKKQEEMKKLIEDEDLTYGNSAWADPRGLRSQLHGFDGVKYKPG” was “soluble”; that for “GPGSMVLVLVVGDTWVPQRASGVPEVFCKMFSPGRIHKLLITGGVGSKEMYDYLRTIAPEVHCVTSSVDRQWADHMPESVVLTVEGLKLGLIHGHQVPVGDKDSLAAVQRELDVDVLVSGSTHQSKYFEFDSHLFVNPGSLSGADTEYDVNVVPSFMLLDIQDKSVVTFIYQFHPEDETGGGGTATEDLAAAGMVPGLRIKKKEWAKE” was “not soluble”.
